What was measured:
[1] = tested on: HeLa Kyoto; assay: solubility change mitosis vs G1/S (difference of NP-40 vs SDS log2 ratios) (log2 ratio difference); higher = more soluble in mitosis
[2] = tested on: HeLa Kyoto; assay: thermal stability score vs G1/S (z-score of summed log2 fold changes over temperatures); higher = more thermally stable than in G1/S
[3] = tested on: HeLa Kyoto; assay: solubility in G1/S (NP-40 vs SDS abundance) (log2 ratio); higher = more soluble; details: cell cycle stage: G1/S
[4] = tested on: HeLa Kyoto; assay: melting temperature (median over replicates), in situ; higher = more thermally stable
[5] = cell cycle stage: early G1 (4.5 h after nocodazole release)
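For melting temperature (median over replicates), in situ in this document: HeLa Kyoto cells synchronized by double thymidine or nocodazole block, proteins quantified by TMT10plex mass spectrometry, three independent biological replicates.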
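For solubility change mitosis vs G1/S (difference of NP-40 vs SDS log2 ratios) in this document: synchronized HeLa Kyoto cells (double thymidine block for G1/S, nocodazole release for mitosis), protein amounts in NP-40 versus SDS lysates quantified by mass spectrometry, three biological replicates.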
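For solubility in G1/S (NP-40 vs SDS abundance) in this document: HeLa Kyoto cells arrested at G1/S by double thymidine block, proteins quantified by TMT10plex mass spectrometry in mild NP-40 versus SDS extracts, three biological replicates.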
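For thermal stability score vs G1/S (z-score of summed log2 fold changes over temperatures) in this document: synchronized HeLa Kyoto cells, proteins quantified by TMT10plex mass spectrometry, three biological replicates, mitosis taken 0.5 h after nocodazole release, G1/S directly after double thymidine block.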

Sequence of CDK13 (chain, as listed by the source): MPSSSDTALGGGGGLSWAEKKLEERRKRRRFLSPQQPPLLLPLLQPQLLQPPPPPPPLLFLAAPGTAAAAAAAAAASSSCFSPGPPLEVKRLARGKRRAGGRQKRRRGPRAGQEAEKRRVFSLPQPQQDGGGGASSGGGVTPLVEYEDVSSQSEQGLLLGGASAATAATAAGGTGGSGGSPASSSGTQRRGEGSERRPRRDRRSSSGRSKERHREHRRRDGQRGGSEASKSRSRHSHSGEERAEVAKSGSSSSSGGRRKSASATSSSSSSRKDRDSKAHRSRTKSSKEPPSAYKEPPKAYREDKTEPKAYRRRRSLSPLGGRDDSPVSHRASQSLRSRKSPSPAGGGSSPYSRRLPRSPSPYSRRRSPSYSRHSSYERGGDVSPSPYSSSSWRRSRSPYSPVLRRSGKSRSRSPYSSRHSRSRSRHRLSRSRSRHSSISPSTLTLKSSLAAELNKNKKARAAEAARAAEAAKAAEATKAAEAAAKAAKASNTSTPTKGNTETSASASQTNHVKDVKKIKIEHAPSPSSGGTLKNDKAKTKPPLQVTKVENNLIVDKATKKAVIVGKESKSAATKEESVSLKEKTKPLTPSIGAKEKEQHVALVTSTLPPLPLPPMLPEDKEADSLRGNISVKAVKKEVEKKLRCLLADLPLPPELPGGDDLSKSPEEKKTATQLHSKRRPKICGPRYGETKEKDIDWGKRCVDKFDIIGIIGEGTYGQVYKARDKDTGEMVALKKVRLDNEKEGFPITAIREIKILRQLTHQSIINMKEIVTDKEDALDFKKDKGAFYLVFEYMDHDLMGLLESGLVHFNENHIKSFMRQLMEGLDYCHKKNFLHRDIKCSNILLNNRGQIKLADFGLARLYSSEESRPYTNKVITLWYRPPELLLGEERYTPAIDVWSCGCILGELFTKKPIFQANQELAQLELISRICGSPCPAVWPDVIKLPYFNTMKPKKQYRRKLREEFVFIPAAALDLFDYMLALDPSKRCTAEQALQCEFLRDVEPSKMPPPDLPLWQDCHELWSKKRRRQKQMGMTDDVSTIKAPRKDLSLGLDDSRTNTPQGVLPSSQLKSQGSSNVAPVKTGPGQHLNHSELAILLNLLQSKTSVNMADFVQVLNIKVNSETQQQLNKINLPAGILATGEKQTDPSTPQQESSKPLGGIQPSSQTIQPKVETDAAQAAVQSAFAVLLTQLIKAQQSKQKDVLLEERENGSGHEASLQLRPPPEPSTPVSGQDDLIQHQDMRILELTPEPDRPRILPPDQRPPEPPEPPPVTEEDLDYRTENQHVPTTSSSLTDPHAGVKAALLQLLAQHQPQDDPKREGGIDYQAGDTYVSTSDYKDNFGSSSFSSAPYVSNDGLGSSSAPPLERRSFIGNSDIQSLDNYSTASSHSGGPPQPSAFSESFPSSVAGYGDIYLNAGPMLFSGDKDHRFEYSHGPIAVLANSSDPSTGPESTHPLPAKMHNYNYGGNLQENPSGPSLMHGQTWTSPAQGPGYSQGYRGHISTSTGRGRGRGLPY

Substance | solubility change mitosis (log2) [1] | thermal stability score [2, 5] | thermal stability score ([2]; cell cycle stage: mitosis) | solubility in G1/S (log2) [3] | melting temperature ([4]; cell cycle stage: G1/S) [°C] | melting temperature ([4]; cell cycle stage: mitosis) [°C]
MSRYGRYGGETKVYVGNLGTGAGKGELERAFSYYGPLRTVWIARNPPGFAFVEFEDPRDAEDAVRGLDGKVICGSRVRVELSTGMPRRSRFDRPPARRPFDPNDRCYECGEKGHYAYDCHRYSRRRRSRSRSRSHSRSRGRRYSRSRSRSRGRRSRSASPRRSRSISLRRSRSASLRRSRSGSIKGSRYFQSPSRSRSRSRSISRPRSSRSKSRSPSPKRSRSPSGSPRRSASPERMD [SRSF7] | 0.665 | -4.9 | -9.15 | -1.02 | 50.4 | 50.5
MAEGNHRKKPLKVLESLGKDFLTGVLDNLVEQNVLNWKEEEKKKYYDAKTEDKVRVMADSMQEKQRMAGQMLLQTFFNIDQISPNKKAHPNMEAGPPESGESTDALKLCPHEEFLRLCKERAEEIYPIKERNNRTRLALIICNTEFDHLPPRNGADFDITGMKELLEGLDYSVDVEENLTARDMESALRAFATRPEHKSSDSTFLVLMSHGILEGICGTVHDEKKPDVLLYDTIFQIFNNRNCLSLKDKPKVIIVQACRGANRGELWVRDSPASLEVASSQSSENLEEDAVYKTHVEKDFIAFCSSTPHNVSWRDSTMGSIFITQLITCFQKYSWCCHLEEVFRKVQQSFETPRAKAQMPTIERLSMTRYFYLFPGN [CASP4] | -0.0831 | 0.457 | 0.45 | 0.0521 |  | 50.5
CDK13 | 0.194 | -0.541 | 0.202 | -0.604 | 50.9 | 52.5
MSLYDDLGVETSDSKTEGWSKNFKLLQSQLQVKKAALTQAKSQRTKQSTVLAPVIDLKRGGSSDDRQIVDTPPHVAAGLKDPVPSGFSAGEVLIPLADEYDPMFPNDYEKVVKRQREERQRQRELERQKEIEEREKRRKDRHEASGFARRPDPDSDEDEDYERERRKRSMGGAAIAPPTSLVEKDKELPRDFPYEEDSRPRSQSSKAAIPPPVYEEQDRPRSPTGPSNSFLANMGGTVAHKIMQKYGFREGQGLGKHEQGLSTALSVEKTSKRGGKIIVGDATEKDASKKSDSNPLTEILKCPTKVVLLRNMVGAGEVDEDLEVETKEECEKYGKVGKCVIFEIPGAPDDEAVRIFLEFERVESAIKAVVDLNGRYFGGRVVKACFYNLDKFRVLDLAEQV [RBM17] | 0.318 | 0.948 | 4.62 | -0.32 | 48.3 | 49.3
MCGDCVEKEYPNRGNTCLENGSFLLNFTGCAVCSKRDFMLITNKSLKEEDGEEIVTYDHLCKNCHHVIARHEYTFSIMDEFQEYTMLCLLCGKAEDTISILPDDPRQMTLLF [CHURC1] | -0.361 | -2.8 | -3.3 | 0.0387 | 51.5 | 52.5
MTCYRGFLLGSCCRVAGGRAAALRGPGAGGPAARPRLGGDGGGRRHLGQGQPRELAGCGSRADGGFRPSRVVVVAKTTRYEFEQQRYRYAELSEEDLKQLLALKGSSYSGLLERHHIHTKNVEHIIDSLRNEGIEVRLVKRREYDEETVRWADAVIAAGGDGTMLLAASKVLDRLKPVIGVNTDPERSEGHLCLPVRYTHSFPEALQKFYRGEFRWLWRQRIRLYLEGTGINPVPVDLHEQQLSLNQHNRALNIERAHDERSEASGPQLLPVRALNEVFIGESLSSRASYYEISVDDGPWEKQKSSGLNLCTGTGSKAWSFNINRVATQAVEDVLNIAKRQGNLSLPLNRELVEKVTNEYNESLLYSPEEPKILFSIREPIANRVFSSSRQRCFSSKVCVRSRCWDACMVVDGGTSFEFNDGAIASMMINKEDELRTVLLEQ [NADK2] | -0.121 | -0.37 | 2.77 | 0.0487 | 55.3 | 55.5
MHPAVFLSLPDLRCSLLLLVTWVFTPVTTEITSLDTENIDEILNNADVALVNFYADWCRFSQMLHPIFEEASDVIKEEFPNENQVVFARVDCDQHSDIAQRYRISKYPTLKLFRNGMMMKREYRGQRSVKALADYIRQQKSDPIQEIRDLAEITTLDRSKRNIIGYFEQKDSDNYRVFERVANILHDDCAFLSAFGDVSKPERYSGDNIIYKPPGHSAPDMVYLGAMTNFDVTYNWIQDKCVPLVREITFENGEELTEEGLPFLILFHMKEDTESLEIFQNEVARQLISEKGTINFLHADCDKFRHPLLHIQKTPADCPVIAIDSFRHMYVFGDFKDVLIPGKLKQFVFDLHSGKLHREFHHGPDPTDTAPGEQAQDVASSPPESSFQKLAPSEYRYTLLRDRDEL [ERP44] | -0.0724 | 5.67 | 6.88 | 0.277 | 53.9 | 54.1
MPALPLDQLQITHKDPKTGKLRTSPALHPEQKADRYFVLYKPPPKDNIPALVEEYLERATFVANDLDWLLALPHDKFWCQVIFDETLQKCLDSYLRYVPRKFDEGVASAPEVVDMQKRLHRSVFLTFLRMSTHKESKDHFISPSAFGEILYNNFLFDIPKILDLCVLFGKGNSPLLQKMIGNIFTQQPSYYSDLDETLPTILQVFSNILQHCGLQGDGANTTPQKLEERGRLTPSDMPLLELKDIVLYLCDTCTTLWAFLDIFPLACQTFQKHDFCYRLASFYEAAIPEMESAIKKRRLEDSKLLGDLWQRLSHSRKKLMEIFHIILNQICLLPILESSCDNIQGFIEEFLQIFSSLLQEKRFLRDYDALFPVAEDISLLQQASSVLDETRTAYILQAVESAWEGVDRRKATDAKDPSVIEEPNGEPNGVTVTAEAVSQASSHPENSEEEECMGAAAAVGPAMCGVELDSLISQVKDLLPDLGEGFILACLEYYHYDPEQVINNILEERLAPTLSQLDRNLDREMKPDPTPLLTSRHNVFQNDEFDVFSRDSVDLSRVHKGKSTRKEENTRSLLNDKRAVAAQRQRYEQYSVVVEEVPLQPGESLPYHSVYYEDEYDDTYDGNQVGANDADSDDELISRRPFTIPQVLRTKVPREGQEEDDDDEEDDADEEAPKPDHFVQDPAVLREKAEARRMAFLAKKGYRHDSSTAVAGSPRGHGQSRETTQERRKKEANKATRANHNRRTMADRKRSKGMIPS [ASCC2] | 0.0692 | 0.236 | 1.02 | -0.248 | 52.1 | 49.5
MAASMCDVFSFCVGVAGRARVSVEVRFVSSAKGKGLFATQLIRKGETIFVERPLVAAQFLWNALYRYRACDHCLRALEKAEENAQRLTGKPGQVLPHPELCTVRKDLHQNCPHCQVMYCSAECRLAATEQYHQVLCPGPSQDDPLHPLNKLQEAWRSIHYPPETASIMLMARMVATVKQAKDKDRWIRLFSQFCNKTANEEEEIVHKLLGDKFKGQLELLRRLFTEALYEEAVSQWFTPDGFRSLFALVGTNGQGIGTSSLSQWVHACDTLELKPQDREQLDAFIDQLYKDIEAATGEFLNCEGSGLFVLQSCCNHSCVPNAETSFPENNFLLHVTALEDIKPGEEICISYLDCCQRERSRHSRHKILRENYLFVCSCPKCLAEADEPNVTSEEEEEEEEEEEGEPEDAELGDEMTDV [SMYD5] | -0.154 | 1.21 | -0.768 | -0.147 | 53.4 | 53.1
USP34 | -0.0816 | 0.493 | 1.73 | -0.314 | 49.5 | 50.2
MAAAQEADGARSAVVAAGGGSSGQVTSNGSIGRDPPAETQPQNPPAQPAPNAWQVIKGVLFRIFIIWAISSWFRRGPAPQDQAGPGGAPRVASRNLFPKDTLMNLHVYISEHEHFTDFNATSALFWEQHDLVYGDWTSGENSDGCYEHFAELDIPQSVQQNGSIYIHVYFTKSGFHPDPRQKALYRRLATVHMSRMINKYKRRRFQKTKNLLTGETEADPEMIKRAEDYGPVEVISHWHPNITINIVDDHTPWVKGSVPPPLDQYVKFDAVSGDYYPIIYFNDYWNLQKDYYPINESLASLPLRVSFCPLSLWRWQLYAAQSTKSPWNFLGDELYEQSDEEQDSVKVALLETNPYLLALTIIVSIVHSVFEFLAFKNDIQFWNSRQSLEGLSVRSVFFGVFQSFVVLLYILDNETNFVVQVSVFIGVLIDLWKITKVMDVRLDREHRVAGIFPRLSFKDKSTYIESSTKVYDDMAFRYLSWILFPLLGCYAVYSLLYLEHKGWYSWVLSMLYGFLLTFGFITMTPQLFINYKLKSVAHLPWRMLTYKALNTFIDDLFAFVIKMPVMYRIGCLRDDVVFFIYLYQRWIYRVDPTRVNEFGMSGEDPTAAAPVAEVPTAAGALTPTPAPTTTTATREEASTSLPTKPTQGASSASEPQEAPPKPAEDKKKD [CLPTM1] | -0.142 | 3.21 | 0.298 | -0.0403 | 53.4 | 53.8
MVKLTAELIEQAAQYTNAVRDRELDLRGYKIPVIENLGATLDQFDAIDFSDNEIRKLDGFPLLRRLKTLLVNNNRICRIGEGLDQALPCLTELILTNNSLVELGDLDPLASLKSLTYLSILRNPVTNKKHYRLYVIYKVPQVRVLDFQKVKLKERQEAEKMFKGKRGAQLAKDIARRSKTFNPGAGLPTDKKKGGPSPGDVEAIKNAIANASTLAEVERLKGLLQSGQIPGRERRSGPTDDGEEEMEEDTVTNGS [SNRPA1] | 0.21 | 0.145 | -1.77 | 0.281 | 54 | 54.2
MPLELELCPGRWVGGQHPCFIIAEIGQNHQGDLDVAKRMIRMAKECGADCAKFQKSELEFKFNRKALERPYTSKHSWGKTYGEHKRHLEFSHDQYRELQRYAEEVGIFFTASGMDEMAVEFLHELNVPFFKVGSGDTNNFPYLEKTAKKGRPMVISSGMQSMDTMKQVYQIVKPLNPNFCFLQCTSAYPLQPEDVNLRVISEYQKLFPDIPIGYSGHETGIAISVAAVALGAKVLERHITLDKTWKGSDHSASLEPGELAELVRSVRLVERALGSPTKQLLPCEMACNEKLGKSVVAKVKIPEGTILTMDMLTVKVGEPKGYPPEDIFNLVGKKVLVTVEEDDTIMEELVDNHGKKIKS [NANS] | -0.108 | -1.59 | -2.55 | 0.172 | 53 | 52.3
MSSKKNRKRLNQSAENGSSLPSAASSCAEARAPSAGSDFAATSGTLTVTNLLEKVDDKIPKTFQNSLIHLGLNTMKSANICIGRPVLLTSLNGKQEVYTAWPMAGFPGGKVGLSEMAQKNVGVRPGDAIQVQPLVGAVLQAEEMDVALSDKDMEINEEELTGCILRKLDGKIVLPGNFLYCTFYGRPYKLQVLRVKGADGMILGGPQSDSDTDAQRMAFEQSSMETSSLELSLQLSQLDLEDTQIPTSRSTPYKPIDDRITNKASDVLLDVTQSPGDGSGLMLEEVTGLKCNFESAREGNEQLTEEERLLKFSIGAKCNTDTFYFISSTTRVNFTEIDKNSKEQDNQFKVTYDMIGGLSSQLKAIREIIELPLKQPELFKSYGIPAPRGVLLYGPPGTGKTMIARAVANEVGAYVSVINGPEIISKFYGETEAKLRQIFAEATLRHPSIIFIDELDALCPKREGAQNEVEKRVVASLLTLMDGIGSEVSEGQVLVLGATNRPHALDAALRRPGRFDKEIEIGVPNAQDRLDILQKLLRRVPHLLTEAELLQLANSAHGYVGADLKVLCNEAGLCALRRILKKQPNLPDVKVAGLVKITLKDFLQAMNDIRPSAMREIAIDVPNVSWSDIGGLESIKLKLEQAVEWPLKHPESFIRMGIQPPKGVLLYGPPGCSKTMIAKALANESGLNFLAIKGPELMNKYVGESERAVRETFRKARAVAPSIIFFDELDALAVERGSSLGAGNVADRVLAQLLTEMDGIEQLKDVTILAATNRPDRIDKALMRPGRIDRIIYVPLPDAATRREIFKLQFHSMPVSNEVDLDELILQTDAYSGAEIVAVCREAALLALEEDIQANLIMKRHFTQALSTVTPRIPESLRRFYEDYQEKSGLHTL [SPATA5] | 0.184 | 1.78 | -0.413 | -0.296 | 53 | 51.7
MAKGDPKKPKGKMSAYAFFVQTCREEHKKKNPEVPVNFAEFSKKCSERWKTMSGKEKSKFDEMAKADKVRYDREMKDYGPAKGGKKKKDPNAPKRPPSGFFLFCSEFRPKIKSTNPGISIGDVAKKLGEMWNNLNDSEKQPYITKAAKLKEKYEKDVADYKSKGKFDGAKGPAKVARKKVEEEDEEEEEEEEEEEEEEDE [HMGB3] | 0.349 | 1.34 | 0.604 | 0.667 | 57 | 57.3

— the supplement of paper PMC5998384
